# Measurements reported in IntAct's records for PubMed 10026153.
# B1: Tyrosine-protein kinase CSK (Homo sapiens), P41240 (parent)
# chain: MSAIQAAWPSGTECIAKYNFHGTAEQDLPFCKGDVLTIVAVTKDPNWYKAKNKVGREGIIPANYVQKREGVKAGTKLSLMPWFHGKITREQAERLLYPPETGLFLVRESTNYPGDYTLCVSCDGKVEHYRIMYHASKLSIDEEVYFENLMQLVEHYTSDADGLCTRLIKPKVMEGTVAAQDEFYRSGWALNMKELKLLQTIGKGEFGDVMLGDYRGNKVAVKCIKNDATAQAFLAEASVMTQLRHSNLVQLLGVIVEEKGGLYIVTEYMAKGSLVDYLRSRGRSVLGGDCLLKFSLDVCEAMEYLEGNNFVHRDLAARNVLVSEDNVAKVSDFGLTKEASSTQDTGKLPVKWTAPEALREKKFSTKSDVWSFGILLWEIYSFGRVPYPRIPLKDVVPRVEKGYKMDAPDGCPPAVYEVMKNCWHLDAAMRPSFLQLREQLEHIKTHELHL
# Variants of: B1
# Details: with igf1r_human IGF1R
row,Variant,effect of a mutation on the interaction
1,S109C,disrupting interaction strength
